Measurements published in patent US20090018070A1 (LABORATOIRES SERONO, published 2009).
One block for each binder: values may come before it.

Biological target: T1, human FSH receptor (human, UniProt P23945 18-695)
T1 sequence (looked up): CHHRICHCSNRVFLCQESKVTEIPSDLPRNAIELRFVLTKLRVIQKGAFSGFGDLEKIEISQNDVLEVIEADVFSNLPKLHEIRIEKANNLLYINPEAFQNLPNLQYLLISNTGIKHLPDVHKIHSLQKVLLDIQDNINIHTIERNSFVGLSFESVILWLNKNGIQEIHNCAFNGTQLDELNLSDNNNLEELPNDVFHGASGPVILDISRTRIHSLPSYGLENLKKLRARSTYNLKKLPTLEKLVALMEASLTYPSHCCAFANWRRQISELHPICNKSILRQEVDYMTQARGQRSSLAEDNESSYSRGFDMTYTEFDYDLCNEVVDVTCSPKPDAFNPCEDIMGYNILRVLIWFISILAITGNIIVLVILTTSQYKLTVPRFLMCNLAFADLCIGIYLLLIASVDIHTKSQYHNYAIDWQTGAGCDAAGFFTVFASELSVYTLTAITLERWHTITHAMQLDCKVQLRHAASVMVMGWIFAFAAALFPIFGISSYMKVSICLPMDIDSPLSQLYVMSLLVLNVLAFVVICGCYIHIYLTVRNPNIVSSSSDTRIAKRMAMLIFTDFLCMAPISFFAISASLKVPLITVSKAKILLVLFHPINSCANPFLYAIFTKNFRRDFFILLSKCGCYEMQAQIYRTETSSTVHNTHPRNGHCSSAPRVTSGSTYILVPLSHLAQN
Assay: cell-based or functional assay

EC50 of cAMP production in CHO-FSHR cells: 258 pM
B1: GNRT mutant FSH (Clone 10C, alpha GNRT / beta GM1) (ligand)
chain 1: not shown
chain 2: NSCELTNITIAIEKEECRFCISINTTWCAGYCYTRDLVYKDPARPKIQKTCTFKNLTYETVRVPGCAHHADSLYTYPVATQCHCGKCDSDSTDCTVRGLGPSYCSFGEMKE

EC50 of cAMP production in CHO-FSHR cells: 278 pM
B2: GNFT mutant FSH (Clone 11C, alpha GNFT / beta GM1) (ligand)
chain 1: not shown
chain 2: B1 chain 2
